The record followed here is patent publication US20240239894A1 (AstraZeneca / MedImmune, published 2024).

Experiment [1] deals with T1, cynomolgus monkey B7-H4 on cells (cynomolgus monkey, UniProt A0A2K5U6P5 25-282).
T1 sequence: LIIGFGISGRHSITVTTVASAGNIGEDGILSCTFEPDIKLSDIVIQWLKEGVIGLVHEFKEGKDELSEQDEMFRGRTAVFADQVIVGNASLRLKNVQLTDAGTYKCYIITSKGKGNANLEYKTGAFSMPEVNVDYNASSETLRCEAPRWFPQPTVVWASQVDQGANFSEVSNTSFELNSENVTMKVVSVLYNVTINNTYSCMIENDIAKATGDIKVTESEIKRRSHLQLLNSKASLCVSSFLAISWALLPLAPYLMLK
In words: cell-based or functional assay.

Another experiment has as its target T2, huB7-H1 (human, UniProt Q9NZQ7 19-238).
T2 construct: Sourced antigen; construct not described; also called Human B7-H1
In words: ELISA.

The next experiment has as its target T3, huB7-H2 (human, UniProt O75144 19-258).
T3 construct: Sourced antigen; construct not described; also called Human B7-H2
T3 sequence (looked up): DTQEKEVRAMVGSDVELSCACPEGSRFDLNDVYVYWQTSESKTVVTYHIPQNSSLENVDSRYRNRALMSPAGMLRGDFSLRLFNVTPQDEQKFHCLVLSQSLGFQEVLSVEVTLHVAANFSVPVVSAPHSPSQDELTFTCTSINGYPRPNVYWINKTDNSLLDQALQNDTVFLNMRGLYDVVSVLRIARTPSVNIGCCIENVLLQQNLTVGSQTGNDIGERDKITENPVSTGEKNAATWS
In words: ELISA.

In the next experiment the target is T4, huB7-H3 (human, UniProt Q5ZPR3 29-461, limits assumed).
T4 construct: Sourced antigen; construct not described; also called Human B7-H3
T4 sequence (looked up): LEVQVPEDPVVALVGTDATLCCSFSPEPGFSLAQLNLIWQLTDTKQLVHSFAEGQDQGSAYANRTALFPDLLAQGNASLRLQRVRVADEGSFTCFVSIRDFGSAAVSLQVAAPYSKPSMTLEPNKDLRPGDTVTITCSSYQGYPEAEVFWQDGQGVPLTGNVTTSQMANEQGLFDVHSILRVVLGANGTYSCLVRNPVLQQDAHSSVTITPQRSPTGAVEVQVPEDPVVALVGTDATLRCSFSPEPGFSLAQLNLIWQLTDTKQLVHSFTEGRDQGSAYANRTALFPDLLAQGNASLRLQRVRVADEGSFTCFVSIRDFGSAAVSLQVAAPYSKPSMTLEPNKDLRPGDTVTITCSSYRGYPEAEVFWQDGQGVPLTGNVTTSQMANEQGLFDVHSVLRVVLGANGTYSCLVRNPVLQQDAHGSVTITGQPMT
In words: ELISA.

A further experiment deals with T5, huBTN1A1 (human, UniProt Q13410 27-242, limits assumed).
T5 construct: Sourced antigen; construct not described; also called Human BTN1A1
T5 sequence (looked up): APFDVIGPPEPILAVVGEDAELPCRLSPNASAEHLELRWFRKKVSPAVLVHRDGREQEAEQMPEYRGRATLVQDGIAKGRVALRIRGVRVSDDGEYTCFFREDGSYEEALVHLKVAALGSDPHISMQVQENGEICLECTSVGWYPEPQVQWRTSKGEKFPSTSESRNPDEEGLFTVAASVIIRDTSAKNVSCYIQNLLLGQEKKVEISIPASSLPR
In words: ELISA.

The target of the next experiment is T6, huHHLA2 (human, UniProt Q9UM44 23-344).
T6 construct: Sourced antigen; construct not described; also called Human HHLA2
T6 sequence (looked up): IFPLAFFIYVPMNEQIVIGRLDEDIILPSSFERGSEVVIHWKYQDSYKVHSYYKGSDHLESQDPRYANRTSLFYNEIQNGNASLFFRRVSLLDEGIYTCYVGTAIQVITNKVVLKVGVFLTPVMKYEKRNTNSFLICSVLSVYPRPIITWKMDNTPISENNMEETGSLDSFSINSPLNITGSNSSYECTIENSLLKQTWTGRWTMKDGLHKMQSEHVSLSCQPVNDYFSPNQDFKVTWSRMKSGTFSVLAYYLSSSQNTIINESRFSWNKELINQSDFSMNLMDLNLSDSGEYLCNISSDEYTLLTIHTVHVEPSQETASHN
In words: ELISA.

A further experiment deals with T7, huBTN3A2 (human, UniProt P78410 30-248, limits assumed).
T7 construct: Sourced antigen; construct not described; also called Human BTN3A2
In words: ELISA.

Another experiment deals with T8, huBTN2A1 (human, UniProt Q7KYR7 29-248, limits assumed).
T8 construct: Sourced antigen; construct not described; also called Human BTN2A1
T8 sequence (looked up): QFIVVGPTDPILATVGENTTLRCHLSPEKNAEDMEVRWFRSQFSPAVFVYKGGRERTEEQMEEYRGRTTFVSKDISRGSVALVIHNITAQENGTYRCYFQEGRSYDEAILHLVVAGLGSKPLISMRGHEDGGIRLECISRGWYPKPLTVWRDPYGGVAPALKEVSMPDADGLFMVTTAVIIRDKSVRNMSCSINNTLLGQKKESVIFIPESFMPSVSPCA
In words: ELISA.

For the next experiment, the target named is T9, huBTNL3 (human, UniProt Q6UXE8 18-237, limits assumed).
T9 construct: Sourced antigen; construct not described; also called Human BTNL3
T9 sequence (looked up): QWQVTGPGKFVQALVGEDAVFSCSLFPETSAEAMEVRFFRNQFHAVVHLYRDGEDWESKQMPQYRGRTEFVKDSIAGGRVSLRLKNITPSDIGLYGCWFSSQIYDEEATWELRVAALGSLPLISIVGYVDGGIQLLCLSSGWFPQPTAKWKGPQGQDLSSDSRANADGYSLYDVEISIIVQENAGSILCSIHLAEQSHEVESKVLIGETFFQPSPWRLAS
In words: ELISA.

Another experiment deals with T10, human B7-H4 on cells (human, UniProt Q7Z7D3 25-282).
T10 sequence: T1 sequence with I53L, L242F, A252S
In words: cell-based or functional assay.

Experiment [2] has as its target T11, Human B7-H4 ECD-Flag-His10 (monomeric) (human, UniProt Q7Z7D3 25-259).
T11 construct: Minimally biotinylated for KinExA; also called hB7H4-ECD-Flag-His10; B7-H4-FLAG
T11 sequence: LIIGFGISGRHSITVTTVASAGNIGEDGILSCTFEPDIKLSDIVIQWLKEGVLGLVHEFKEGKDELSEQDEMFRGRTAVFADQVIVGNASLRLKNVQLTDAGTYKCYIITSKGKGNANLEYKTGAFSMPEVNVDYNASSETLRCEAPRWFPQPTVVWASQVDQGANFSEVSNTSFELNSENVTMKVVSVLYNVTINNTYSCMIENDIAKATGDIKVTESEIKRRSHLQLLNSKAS
In words: Octet BLI, hIgG1-TM on Protein G (n = 4-7).

The target in experiment [3] is T12, Murine B7-H4 ECD-Flag-His10 (monomeric) (mouse, UniProt Q7TSP5 25-257).
T12 construct: extracellular domain; also called FlagHis10 murine B7-H4
T12 sequence (looked up): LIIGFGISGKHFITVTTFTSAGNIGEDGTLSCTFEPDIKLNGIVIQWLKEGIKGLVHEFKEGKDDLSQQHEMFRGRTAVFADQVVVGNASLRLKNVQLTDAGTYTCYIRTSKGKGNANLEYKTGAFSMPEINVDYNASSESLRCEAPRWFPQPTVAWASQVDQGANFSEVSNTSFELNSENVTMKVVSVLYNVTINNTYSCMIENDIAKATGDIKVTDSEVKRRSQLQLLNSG
In words: Octet BLI, hIgG1-TM on Protein G (n = 4-7).

Experiment [4] concerns the target T13, Human B7H4 ECD (SV), splice variant, 10His_FLAG (human).
T13 construct: also called B7-H4-SV
In words: Octet BLI, hIgG1-TM on Protein G (n = 4-7).

Experiment [5] has as its target T12, Murine B7-H4 ECD-Flag-His10 (monomeric). In words: Octet; summary table, repeats Table 9 (hIgG1-TM).
Experiment [6] concerns the target T13, Human B7H4 ECD (SV), splice variant, …. In words: Octet; summary table, repeats Table 9 (hIgG1-TM).
Experiment [7] has as its target T11, Human B7-H4 ECD-Flag-His10 (monomeric). In words: Octet; summary table, rounded from Table 9 (hIgG1-TM).
The target of experiment [8] is T14, Human B7H4 (ECD) Fc TM 6H (human, UniProt Q7Z7D3).
T14 construct: ECD, native leader
T14 sequence (Q7Z7D3 whole entry, looked up): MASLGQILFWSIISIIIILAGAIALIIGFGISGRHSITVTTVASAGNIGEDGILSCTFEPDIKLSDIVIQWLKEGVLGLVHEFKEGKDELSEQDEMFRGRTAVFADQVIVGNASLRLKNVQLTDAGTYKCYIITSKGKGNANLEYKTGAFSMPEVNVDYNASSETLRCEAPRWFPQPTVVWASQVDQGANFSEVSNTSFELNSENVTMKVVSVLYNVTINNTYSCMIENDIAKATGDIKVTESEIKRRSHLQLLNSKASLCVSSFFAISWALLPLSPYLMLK
In words: ELISA, absorbance 450 nm, Human B7H4 (ECD) Fc TM 6H; x axis printed as antigen concentration (nM).

Substitutions are numbered along the chain they refer to.

T2 sequence (Q9NZQ7 19-238 limits assumed): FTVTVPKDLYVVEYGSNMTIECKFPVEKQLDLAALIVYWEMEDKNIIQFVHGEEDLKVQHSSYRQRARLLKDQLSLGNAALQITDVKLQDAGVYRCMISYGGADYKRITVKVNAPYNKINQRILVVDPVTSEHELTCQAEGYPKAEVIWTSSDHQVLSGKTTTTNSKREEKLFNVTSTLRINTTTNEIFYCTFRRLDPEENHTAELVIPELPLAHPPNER
T7 sequence (P78410 30-248 limits assumed): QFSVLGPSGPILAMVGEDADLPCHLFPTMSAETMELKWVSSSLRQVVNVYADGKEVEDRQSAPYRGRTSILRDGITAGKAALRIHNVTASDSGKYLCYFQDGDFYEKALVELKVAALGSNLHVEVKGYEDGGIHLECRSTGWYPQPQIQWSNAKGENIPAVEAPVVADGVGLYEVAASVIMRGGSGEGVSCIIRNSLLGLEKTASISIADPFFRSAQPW

B1: E02-GL-SG3249 (antibody, human IgG1, kappa)
heavy: QVQLQQWGAGLLKPSETLSLACTVYGGSFSGYYWNWIRQPPGKGLEWIGEINHSGSTSYNPSLKSRVTISVDTSKNQFSLKLSSVTAADTAVYYCARVLYNWNVDSWGQGTLVTVSSASTKGPSVFPLAPSSKSTSGGTAALGCLVKDYFPEPVTVSWNSGALTSGVHTFPAVLQSSGLYSLSSVVTVPSSSLGTQTYICNVNHKPSNTKVDKRVEPKSCDKTHTCPPCPAPELLGGPSCVFLFPPKPKDTLMISRTPEVTCVVVDVSHEDPEVKFNWYVDGVEVHNAKTKPREEQYNSTYRVVSVLTVLHQDWLNGKEYKCKVSNKALPAPIEKTISKAKGQPREPQVYTLPPSREEMTKNQVSLTCLVKGFYPSDIAVEWESNGQPENNYKTTPPVLDSDGSFFLYSKLTVDKSRWQQGNVFSCSVMHEALHNHYTQKSLSLSPGK
light: DIQMTQSPSSLSASVGDRVTITCRASQDIRNDVGWYQQKPGKAPKRLIYAASRLQSGVPSRFSGSGSGTEFTLTISSLQPEDFATYYCLQHNSYPRTFGQGTKVEIKRTVAAPSVFIFPPSDEQLKSGTASVVCLLNNFYPREAKVQWKVDNALQSGNSQESVTEQDSKDSTYSLSSTLTLSKADYEKHKVYACEVTHQGLSSPVTKSFNRGEC
modifications: pyrrolobenzodiazepine SG3249 conjugated at the inserted cysteine of the Maia backbone
Turning to B1, in experiment [1], the “IC50, cytotoxicity on cynomolgus B7-H4 transfected cells” value was 0.672 ng/mL.

B2: ZY0EO5-E07 human IgG1-TM (antibody, V domains shown)
VH: QVQLQESGPGLVKPSQTLSLTCTVSGGSISSGGYYWSWIRQHPGKGLEWIGNIYYSGSTYYNPSLKSRVTISVDTSKNQFSLKLSSVTAADTAVYYCAREKALASVIPSGYENYYVVDVWGQGTTVTVSS
VL: DIQLTQSPSFLSASVGGRVTITCWASQGIAGYLAWYQQKPGKAPKLLIYAASTLQSGVPSRFSGSGSGTEFTLTISSLQPEDFATYYCQHLNSYPLTFGGGTKVEIK
notes: also called ZY0E05-E07; E05-E07
With B2, the binding result with huB7-H1, in the experiment with huB7-H2, with huB7-H3, in the experiment with huBTN1A1, with huHHLA2 and with huBTN3A2 was “no binding” each time. Also, the binding result with huBTN2A1 and with huBTNL3 was “no binding” throughout. Moreover, the “ZAP % Viability, OVCAR4” value with human B7-H4 on cells stood at 58%. For the same molecule, in the experiment with human B7-H4 on cells, the “ZAP % Viability, SKBR3” value came out at 79%. Moreover, the Kd in experiment [2] was 19.8 nM; in experiment [3] it was 30 nM; in experiment [4] it was 264 nM; in experiment [5], 30 nM; in experiment [6], 264 nM; in experiment [7] it was 20 nM. Also, the koff in experiment [2] came to 0.000338 s⁻¹; in experiment [3], 0.000361 s⁻¹; in experiment [4], 0.000499 s⁻¹. Also, the on-rate (kon) was found to be 17100 M⁻¹ s⁻¹ in experiment [2], 12100 M⁻¹ s⁻¹ in experiment [3] and 1890 M⁻¹ s⁻¹ in experiment [4].

B3: E02-maia (ZY0EQD_E02, wildtype, Maia format human IgG1) (antibody, V domains shown)
VH: QVQLQQWGAGLLKPSETLSLTCAVYGGSFSGYYWNWIRQPPGKGLEWIGEINHSGSTSYNPSLKSRVTISVDTSKNQFSLKLSSVTAADTAVYYCARVLYNWNVDSWGQGTLVTVSS
VL: DIQMTQSPSSLSASVGDRVTITCRASQDIRNDVGWYQQKPGKAPKRLIYAASRLQSGVPSRFSGSGSGTEFTLTISSLQPEDFATYYCLQHNSYPRTFGQGTKVEIKR
notes: built here from VH 33 and the Maia constant region 41
Turning to B3, the “EC50 (read off the curve)” value in experiment [8] is approximately 10 nM.
